According to a protein production outcome set (Wang et al. 2014):

Experiment: label from the status in PepcDB records

Sequence	protein production
MRLDRNPWHWRIWVCIAVLALWPRAASADTITPERIADALSKLDALAQGAVADGGVPGLAIAVVHDDEVIFLRGFGHREAGKPEAVDADTVFQIASLSKPVSATVVAALVSDGIVSWDSKVADLDPAFRLADPYPTSQLTVRDLFSHRSGLPGTAGDDLEDIGYDRAEILHRLRFVPPSSSFRAGYSYSNFGLTEGAVAAAMPTGKSWEEVAQEKLYRPLGMASTSSRHSDFVKHADRAALHIKVDGAWAAKIERDPDAQAPAGGVSSTARDLSQWVRLILGNGVYAGKTLIAADALDQTHVPLMTRGKNPVSGGESFYGLGWNVEFGRHGLSWGHAGAFSVGARTLVTIFPQDKLGIVIIANAFPTGVPEGLSDSFADLVFDGSVQKDWVKAWDGIYAGMFGPVVEAAKATYAAPPSPARPARPASAYAGRYANDFFGDAVVASAGDGLVLKVGPHGARSYSLAHFDGDLFLTYPDAETPDRPTGVSFVVGPDGKASAMTIGFLDDNHLGTLRRVGD	failed
MGGDKIDLYKRFSILFCTIFLLLILQGTVAAESNYTVDYSTYLGDKVVDEARDVYVDDSGYIYVTGSTHVNGSKDVFVTKFNVTREVIYHTILTDTSGDDWGHRIVADGDGYAYVVGEINHDGLKVADAFISKIDPSGKEVKRVYIGGSGYDVAKGLAIDYEGNIYVSGYTISTVLNVSELGGGTARVPGTNPNATPLTDWTYHGGYDAFLARFDQDLNPVNLRYFGGSWDDYCQGIAIDYAGNIYITGYTYSDDFPVTFDAISGDKRGTTDIFLSRFTPDLNCDYSTYLGGSGPDFCYSIISRDSRIYLAGKTNSSDFPVTPNAYQKTRNGSSDGFIMVFNDYSVEYSTYLGGRGDDSINDITQDILGNLYLTGWTGSDNFPLTPGAYDSSLSGVDAFVMKFSIPKGVLYSSYLGGIEADQGYGVAVDRYQNIYVAGKTWSSNFTVTPDACKKNLTGLSDGFLTRFTPFIISNISVTPLNGTGPLTVTLRGNITNCGDSTGWYRLDLYINGYRTAGKWVEVGSLETEPFEFEYTLRNSRAYSVGVNNFPPATVRVFLGPLIIPENLRVTPSGGQEPLKVNVTADLVNYGDLPDSYTAELYIDGVLLDSRNVTVNASSRTTVSFNRTLAAGLYEITINDLEPELVYVMEGEKFYIENFTLTPQSGAAPLTVTVSAMITNIDSNPRSYTATIYVNGVPDHTKVLNIPGESTVPFSTSILLPDRGLYTISLNNNVSGTVRVLSEANFTLSNVTVSPVEGKSPLNVTVTAIVRNNGDLAGDFAVTLYLDDVAWETRTVSVPGKSSVLVSFKKELAFPGEYRLRLNSGTDVTIRVLEPDPTITGFNVTPVTGPAPLSVRASLNVTNPHDLVIGFTARLMVDGVVVQENIVSLSPGETREIAMGTLLTPGNHTVGINEFSKIVRVLRPASITLSDLRVTPSSGFSPLTITATATARNTGEVDGNYTAVLYINGLAVDEKNVTVGAGRSVQVAFNHTIENAGIYLAGIGSLTPLDVRVLSEPAISNLSATPLTGVSPHRIIVTALVSTTEEGSGNYTAGLYIDGVNVQNRTVRVTGPGSVLVSFTADISEPGEHQVTVNSLSPVTVRVLRPATFIVDSLTVSPSTGVIPFRVNASVRVTNIGDIAGNYTARLYIDGVNVQNRTVNVPAGGDVTVSFTYNITQRGNHTVWIDNPPGINVNALKPATLEIRSFSVTPGSAVGSVNANVSAEIENSGDLEGEFSIPFYLNGSLIRNETIRLGPGERGNINFQQYLSGPGVYTFSLGNLRNSTVYVNPARRKYSFTFRNTGKYTTTVTYYVTVYSSTGAKLGYRTFKFTLKPGRSYSATIGYYPYDARIVTTRKIYNPSRYTRTIKLSETFRADTLSATLNYSNTIRGYRYVYIKKTFRAVNMRITVT	failed
MDVSVFLAALGISLLELTEAGAIAAIYHNIYKNNLPFIYAVLGVAIVLIPTFTLGKLIYLVPLNYVLLASAVILFYFGYRLIRSARRSFKGIKKKGGEEKEEGLSVVFTVSAIEGLEASLVILALIPQSYSSAVMGAILASVLVVILTAILKSQVARIRLPHLKFVLSALLFSLGTLWISEVVFDIPDLILPLFFLAYLGINYVIIKI	failed
MIDPLASPGSAPLIVIAGPTASGKSALALRVARRFNGVVINADSMQVYRDLRILSARPSVEDEAAAPHALYGVLDGAEVCSVGRWLALADGAVAAARAAGRLPILCGGTGLYLKAALEGLASVPEVAPEVRAEARELLAALGPAALHAKLAELDRAMAERLRPSDAQRIARAYEVVRGTGRSLMDWWSDPVATPALPGRPLLLVIDPPRAAQRAACDARLLAMVAAGALDELALLLARRLDPALPVMRAVGVPELARTLRGEVGLAEAVERAQGATRRYAKRQGTWIRTQLRPDRVLSESLVTQLSESQLTDIDNFLYAFLLTGAS	failed
MEFTTGLMSLDTALNEMLSRVTPLTAQETLPLVQCFGRILASDVVSPLDVPGFDNSAMDGYAVRLADIASGQPLPVAGKSFAGQPYHGEWPAGTCIRIMTGAPVPEGCEAVVMQEQTEQMDNGVRFTAEVRSGQNIRRRGEDISAGAVVFPAGTRLTTAELPVIASLGIAEVPVIRKVRVALFSTGDELQLPGQPLGDGQIYDTNRLAVHLMLEQLGCEVINLGIIRDDPHALRAAFIEADSQADVVISSGGVSVGEADYTKTILEELGEIAFWKLAIKPGKPFAFGKLSNSWFCGLPGNPVSATLTFYQLVQPLLAKLSGNTASGLPARQRVRTASRLKKTPGRLDFQRGVLQRNADGELEVTTTGHQGSHIFSSFSLGNCFIVLERDRGNVEVGEWVEVEPFNALFGGL	not failed
AFAVLTTAGSRPVLSFLWVEPAARRQGLARELLMALAQQFPGIGTSVTVPETFTPLFAAAGYTPLSLQQYEMTMDLADAKSA	failed
MTDATVGDEAAAPTVVRLDASCTTQEVEAGEYYHATVNGVVEYGAFVDLSEHVSGLIHESTYSGDPDLAVDDDVIVHLSAVRDNGDLSFEFVDPEEYRTEQRSHAYERTTADAVGSRIGDTVHIEGEVVQIKQTAGPTVFRVRDETSAIPCTAFEDAGVRAHPGVEVGDIVHVSGDADDREGTTQLEVDAFEVLSGGDSADVARRLDAALAEQADPVDVDALVDWPALEQLLPDLRSVARTLRRAVLEGRPIRMRHHADGDGMCASLPVQYALRQFIEDTHQDEDAARHLLKRLPSKAPYYEMEDATRDLNFALEDRARHGQKLPLLLMLDNGSTEEDTPAYKTLDNYDIPIVVVDHHHPDPGAVDPLVDEHVNPYLHGEDYRITTGMLCVELARMIYPGITSDLEHVPAVAGLSDRSKADAMTDYLDLARDAGYDESFLQQMSEALDYEAYMLRYDHGTQVIADILNVDGDAQRHRELVPFLDRLASEAVAEQLDATRSHVEHERVASGANLYRIDVENHAHRFTYPRAGENNRRDPRPQGRGNRGAGDHHRLRPGLRGAPVGRRAPGHPHDGRRTQRRTPWGRRLRRRPPGRRLDPVRSRDA	failed
MAIAFHTFLLQLLLFFFASFAEANDSRKTYLVQMKVGGHRYGSSSGHQELLGEVLDDDSYKESFTGFSASLTPRERQKLMSKTTTVSSRRREVLEVSRSRNLKLQTTRSWDFMNLTLKAERNPENESDLVVAVIDSGIWPYSELFGSDSPPPPGWENKCENITCNNKIVGARSYYPKKEKYKWVEEKSVIDVTGHGTHVASIVAGRKVEKAGYFGLAEGTMRGGVPNAKIAVYKTCWRVIRKNGREDSVCREDNILKAIDDAIADKVDIISYSQGFQFTPLQKDKVSWAFLRALKNGILTSAAAGNYANNGKFYYTVANGAPWVMTVAASLKDRIFETKLELEGEDKPIIVYDTINTFETQDSFYPLLNEKAPPESTRKRELIAERNGYSILSNYDEKDKGKDVFFEFAQINLLDEAIKEREKGAIVLGGKSYDFNESIKLQFPIASIFLDEQKKGKLWDYYKKDQSKERLAKIHKTEEIPREEGWVPTVAHLSSRGPNCDSFLANILKPDIAAPGLDIIAGWPENVKLSSDRPANDYRHLRFNIMSGTSMACPHATGLALYLKSFKRWSPSAIKSALMTTSSEMTDDDNEFAYGSGHLNATKVRDPGLVYETHYQDYIDYLCKLGYNTEKLRSHVGSDKIDCSKTEIDHDADLNYPTMTARVPLPLDTPFKKVFHRTVTNVNDGEFTYLREINYRGDKDFDEIIVDPPQLKFSELGETKTFTVTVTGISKRNWNKNRAFMTRNTWLTWTEKDGSRQVRSPIVIYSIKGPKACM	failed
